Several values for one entry are separate records, joined by “and”; a condition that tells them apart may be missing. Identical values can stand only once.
B3: purified NPTX1-flag (pEB Multi Neo Nptx1-flag-IRES-GFP, plasmid #3) (natural protein, mouse, UniProt Q62443 23-432, looked up)
chain: QDFGPTRFICTSVPVDADMCAASVAAGGAEELRSNVLQLRETVLQQKETILSQKETIRELTTKLGRCESQSTLDSGPGEARSGGGRKQPGSGKNTMGDLSRTPAAETLSQLGQTLQSLKTRLENLEQYSRLNSSSQTNSLKDLLQSKIDDLERQVLSRVNTLEEGKGGPKNDTEERAKIESALTSLHQRISELEKGQKDNRPGDKFQLTFPLRTNYMYAKVKKSLPEMYAFTVCMWLKSSAAPGVGTPFSYAVPGQANELVLIEWGNNPMEILINDKVAKLPFVINDGKWHHICVTWTTRDGVWEAYQDGTQGGNGENLAPYHPIKPQGVLVLGQEQDTLGGGFDATQAFVGELAHFNIWDRKLTPGEVYNLATCSSKALSGNVIAWAESQIEIFGGATKWTFEACRQIN

Columns and labels:
native gel or EMSA = biological target: the molecule itself; assay: native gel or EMSA
[1] = biological target: B3; assay: immunostaining of cells or tissue
SEC = biological target: the molecule itself; assay: SEC

B1: purified HA-C1QL3 (pEB Multi Neo HA-C1ql3-IRES-GFP) (natural protein, mouse, UniProt Q9ESN4 21-255, looked up)
chain: HYEMLGTCRMVCDPYGGTKAPSTAATPDRGLMQSLPTFIQGPKGEAGRPGKAGPRGPPGEPGPPGPVGPPGEKGEPGRQGLPGPPGAPGLNAAGAISAATYSTVPKIAFYAGLKRQHEGYEVLKFDDVVTNLGNHYDPTTGKFTCSIPGIYFFTYHVLMRGGDGTSMWADLCKNNQVRASAIAQDADQNYDYASNSVVLHLEPGDEVYIKLDGGKAHGGNNNKYSTFSGFIIYAD
Q: Which results are given for B1?
A: stoichiometry N (native gel or EMSA): 6 and 18; binding result [1]: binds

B2: purified NPTX1-flag-strep (pEB Multi Neo Nptx1-flag-TEV-strep-IRES-GFP, plasmid #4) (natural protein, mouse, UniProt Q62443 23-432, looked up)
chain: QDFGPTRFICTSVPVDADMCAASVAAGGAEELRSNVLQLRETVLQQKETILSQKETIRELTTKLGRCESQSTLDSGPGEARSGGGRKQPGSGKNTMGDLSRTPAAETLSQLGQTLQSLKTRLENLEQYSRLNSSSQTNSLKDLLQSKIDDLERQVLSRVNTLEEGKGGPKNDTEERAKIESALTSLHQRISELEKGQKDNRPGDKFQLTFPLRTNYMYAKVKKSLPEMYAFTVCMWLKSSAAPGVGTPFSYAVPGQANELVLIEWGNNPMEILINDKVAKLPFVINDGKWHHICVTWTTRDGVWEAYQDGTQGGNGENLAPYHPIKPQGVLVLGQEQDTLGGGFDATQAFVGELAHFNIWDRKLTPGEVYNLATCSSKALSGNVIAWAESQIEIFGGATKWTFEACRQIN
Q: For B2, which “stoichiometry N” value (SEC) is on record?
A: ~15

Q: How did the “stoichiometry N” value (native gel or EMSA) turn out when B3 was run?
A: 15

— publication PMC11565477 (FASEB journal : official publication of the Federation of …, 2021)
